How the values were obtained:
Type in all cases: cell-based, human
[1] = test system: HUVEC; assay: HUVEC chemotaxis (migration) toward U266 conditioned media; conditions: U266 treated 48 h with 10 μg/mL Gal-3C, 5 nM Bor or both; 20% conditioned medium; ANOVA, Tukey's post-test
Procedure: Chemotaxis of HUVEC Cells. Chemotaxis (migration) was analyzed with HUVEC cells as a measure of angiogenic potential as reported (86), using 50×10^3 cells/well and 24-well transwell inserts with 8-μm pores. […] As a negative control, EGM-2 medium alone was used. After incubation for 16 h, cells were removed from the upper chamber, and the migrated cells were visualized on the lower side of the filter after fixing and staining with 30% methanol, 10% acetic and 0.1% Coomassie Brilliant Blue. Next, the filters were extensively washed with water, and then air-dried and photographed using an inverted X71 microscope (Olympus, Center Valley, Pa., USA). The average number of cells in 4 random fields per filter was calculated. The studies were run in triplicate and the results are expressed as a migration index (MI), as follows: MI=number of cells migrated in the presence of conditioned medium/number of cells migrated in the presence of EGM-2 alone. […] All assays were run in triplicate.
FIG. 3A is a graph of the results from the vascular endothelial cell migration assay. FIG. 3B is an image of the filters. […] Mean migration indexes (left; ±95% C.I.) expressed as the number of cells migrated in the presence of the indicated stimulus divided by the number of cells migrated in the presence of EBM-2 alone. […]

[2] = test system: HUVEC; assay: Vascular endothelial cell viability assay; conditions: 48 h
Procedure: FIGS. 4A and 4B are graphs of the data from the vascular endothelial cell viability assay. […] The graphs show mean values and error bars represent 95% C.I. **=ANOVA Tukey's post test p<O.Ol. n.s.=not significant. […] Viability was measured as described for the U266 cells. […] Results obtained from the HUVEC viability studies that were run in triplicate are depicted in FIGS. 4A-B, and are presented as a percentage of control (untreated) cells.
(§1) EXAMPLE 3 illustrates Gal-3C inhibits proliferation of MM cells. Cell Proliferation (Viability) Assays. Cell proliferation was assessed with a ViaLight Plus Cell Proliferation and Cytotoxicity BioAssay Kit (Lonza, Walkersville, Md., USA) according to the directions of the manufacturer. In brief, myeloma cells were seeded (8,000 per well) in 50 μL of RPMI-1640 with 10% heat-inactivated FBS (growth medium) in 96-well plates. HUVEC cells were seeded (10,000/well) in 50 μl EGM-2 medium in 96-well plates. Gal-3C (2× concentration) in 50 μL of growth medium was added to triplicate wells and the plate kept at the CO2 incubator at 37° C. for 48 hour. For the ViaLight assay, 50 μL of lysis buffer was added to each well, the plate was incubated for 10 minutes, after which 50 μL of cell lysate from each well was transferred to a solid white Lumitrac-200 plate and 50 μL of reconstituted AMR Plus was added. Luminescence was measured with a 1-s integrated setting in a Berthold luminometer after 2 minutes. With Alamar Blue, 10 μL of reagent was added per well and the plate kept in the CO2 incubator for 4 hours. Fluorescence intensity was measured at 590-nm on a Polarstar Galaxy (BMG Labtech, Cary, N.C.) microplate reader. The blank (growth media with 10 μl Alamar Blue) was subtracted from the raw fluorescence to obtain adjusted fluorescence readings. Triplicate data points were analyzed and the data shown are representative of 3 or more studies.

[3] = test system: VEGF; assay: ELISA of VEGF in U266 cell-conditioned medium; conditions: 48-hour culture with 10 μg/mL Gal-3C, 5 nM Bor or both
Procedure: ELISA of VEGF and bFGF Levels. The levels of VEGF and bFGF were measured by direct ELISA as follows. Flat-bottom 96-well polycarbonate plates were coated at 4° C. with 50 μL/well cell culture supernatants diluted 1:25 in carbonate coating buffer (0.1 M NaHCO3, […]) at 4° C. overnight. Standard curves were obtained with purified recombinant human VEGF and bFGF (both from R&D Systems) serially diluted in coating buffer (10-fold serial dilutions from 1,000 to 0 ng/mL). After removing diluted supernatants or standards, and blocking with PBS supplemented with 1% W/V BSA for 1 hour at room temperature, plates were incubated for 1 hour at room temperature with mouse anti-human VEGF or rabbit anti-human bFGF primary antibodies (2 μg/mL in PBS, 50 μL/well Abeam, Mass., USA). Then, plates were washed twice with PBS with 0.025% V/V Tween-20 (300 μL/well) and incubated at room temperature with anti-mouse or anti-rabbit HRP-labeled secondary antibodies (0.2 μg/mL in PBS, 50 μL/well Abeam, Mass., USA) for 1 hour. The plates were washed thrice with PBS containing 0.025% V/V Tween-20 (300 μL/well), the TMB colorimetric substrate (Thermo Fisher Scientific, Waltham, Mass., USA) was added, and after 5 minutes the absorbance was measured (0.1 s) at 450 nm on a Victor 2 multimodal microplate reader (PerkinElmer, Billerica, Mass., USA). All samples were run in triplicates. […]

[4] = test system: MM cell lines (ARP-1, ARK-B, U266, 8226/Dox, MM-1S, MM-RL, NCI-H929, RMPI-8266); assay: Cell proliferation (viability) assays of MM cell lines; conditions: all eight cell lines, at one or more concentrations (0.5, 1, 2 or 4 μg/ml); 48 hours; P<0.05; magnitude slight
Procedure: as §1, with “With Alamar Blue, 10 μL of reagent was added per well and the plate kept in the CO2 incubator for 4 hours.” left out, “studies. […]” for “studies.”

B1: Gal-3C: N-terminally truncated human galectin-3 consisting of 143 carboxy-terminal amino acid residues, SEQ ID NO: 1 (protein)
chain: GAPAGPLIVPYNLPLPGGVVPRMLITILGTVKPNANRIALDFQRGNDVAFHFNPRFNENNRRVIVCNTKLDNNWGREERQSVFPFESGKPFKIQVLVEPDHFKVAVNDAHLLQYNHRVKKLNEISKLGISGDIDITSASYTMI
migration index compared with controls [1]: no significant difference | effect on HUVEC viability ([2]; at the concentration used in the chemotaxis and angiogenesis assays (Gal-3C 2 μg/ml, Bor 1 nM)): did not display significant effects | effect on HUVEC viability ([2]; at the highest concentrations): mild effect | VEGF levels in U266 conditioned medium [3]: significantly reduced | proliferation of MM cells [4]: significantly inhibited
